For 15 molecules, Ki results are on record in patent US20200024322A1 (Eli Lilly, published 2020).

Where a chain is given by its changes, count along the chain named. Numbered stars: 1 amine (or outer) side, 2 acyl side, 3 side chain; on linkers, the order of the positions; unused ones are H or OH. Square brackets hold non-standard residues; d marks the D form. Side chains are listed from the residue outwards. Ends that are not written are not given here. * marks the point of attachment. C18 diacid = O=C(O)CCCCCCCCCCCCCCCCC(=O)*; γGlu = O=C(O)[C@H](CCC(=O)[*:2])N[*:1]; AEEA = NCCOCCOCC(=O)O; Aib = CC(C)(N)C(=O)O

B1: Example 343 (peptide)
peptide: YXEGTFTSDYSIXLDEKAQXAFIXYLIAGGPSSGAPPPS
modifications: Aib2; αMeL13; K17((2-[2-(2-Amino-ethoxy)-ethoxy]-acetyl)2-(γ-Glu)-CO-(CH2)18-CO2H); Aib20; D-Glu24; C-terminal NH2
B2: Example 216 (peptide)
peptide: B1 peptide with F6X, A21E, A28E
modifications: Aib2; αMeF(2F)6; αMeL13; K17((2-[2-(2-Amino-ethoxy)-ethoxy]-acetyl)2-(εK)-CO-(CH2)18-CO2H); Aib20; D-Glu24; C-terminal NH2
B3: Example 215 (peptide)
peptide: B1 peptide with F6X, A21E, A28E
modifications: Aib2; αMeF(2F)6; αMeL13; K17((2-[2-(2-Amino-ethoxy)-ethoxy]-acetyl)2-CO-(CH2)18-CO2H); Aib20; D-Glu24; C-terminal NH2
B4: Example 214 (peptide)
peptide: B1 peptide with F6X, A21E, A28E
modifications: Aib2; αMeF(2F)6; αMeL13; K17((2-[2-(2-Amino-ethoxy)-ethoxy]-acetyl)2-CO-(CH2)16-CO2H); Aib20; D-Glu24; C-terminal NH2
B5: Example 289 (peptide)
peptide: B1 peptide with E16K, A21E, X24E
modifications: Aib2; αMeL13; K17((2-[2-(2-Amino-ethoxy)-ethoxy]-acetyl)2-(γ-Glu)-CO-(CH2)18-CO2H); Aib20; C-terminal NH2
notes: also called GG-731
B6: Example 338 (peptide)
peptide: B1 peptide with Y1F, E16K, A21E, X24E
modifications: Aib2; αMeL13; K17((2-[2-(2-Amino-ethoxy)-ethoxy]-acetyl)2-(γ-Glu)-CO-(CH2)18-CO2H); Aib20; C-terminal NH2
B7: Example 212 (peptide)
peptide: B1 peptide with F6X, E16K, A21E, A28E
modifications: Aib2; αMeF(2F)6; αMeL13; K17((2-[2-(2-Amino-ethoxy)-ethoxy]-acetyl)2-(γ-Glu)-CO-(CH2)18-CO2H); Aib20; D-Glu24; C-terminal NH2
B8: Example 342 (peptide)
peptide: B1 peptide with Y1X, A21E, X24E
modifications: D-Tyr1; Aib2; αMeL13; K17((2-[2-(2-Amino-ethoxy)-ethoxy]-acetyl)2-(γ-Glu)-CO-(CH2)18-CO2H); Aib20; C-terminal NH2
B9: Example 231 (peptide)
peptide: B1 peptide with F6X, E16K, A21E, A28E
modifications: Aib2; αMeF(2F)6; αMeL13; K17((2-[2-(2-Amino-ethoxy)-ethoxy]-acetyl)2-(γ-Glu)-CO-(CH2)16-CO2H); Aib20; D-Glu24; C-terminal NH2
B10: Example 331 (peptide)
peptide: B1 peptide with A21E, X24E
modifications: Aib2; αMeL13; K17((2-[2-(2-Amino-ethoxy)-ethoxy]-acetyl)2-(γ-Glu)-CO-(CH2)18-CO2H); Aib20; C-terminal NH2
B11: Example 230 (peptide)
peptide: B1 peptide with F6X, E16H, A21E, A28E
modifications: Aib2; αMeF(2F)6; αMeL13; K17((2-[2-(2-Amino-ethoxy)-ethoxy]-acetyl)2-(γ-Glu)-CO-(CH2)18-CO2H); Aib20; D-Glu24; C-terminal NH2
B12: Example 328 (peptide)
peptide: FXEGTFTSDYSIXLDKKAQXAFIEYLIEAGPSSGAPPPS
modifications: Aib2; αMeL13; K17((2-[2-(2-Amino-ethoxy)-ethoxy]-acetyl)2-(γ-Glu)-CO-(CH2)16-CO2H); Aib20; C-terminal NH2
B13: Example 344 (peptide)
peptide: B1 peptide with A21D, X24E
modifications: Aib2; αMeL13; K17((2-[2-(2-Amino-ethoxy)-ethoxy]-acetyl)2-(γ-Glu)-CO-(CH2)18-CO2H); Aib20; C-terminal NH2
B14: Example 295 (peptide)
peptide: Y[Aib]EGTFTSDYSILLDKK([AEEA-AEEA-γGlu-C18 diacid])AQHAFIEYLIEGG-NH2
modifications: N-terminus assumed
SMILES: CC[C@H](C)[C@H](NC(=O)[C@H](CC(C)C)NC(=O)[C@H](Cc1ccc(O)cc1)NC(=O)[C@H](CCC(=O)O)NC(=O)[C@@H](NC(=O)[C@H](Cc1ccccc1)NC(=O)[C@H](C)NC(=O)[C@H](Cc1c[nH]cn1)NC(=O)[C@H](CCC(N)=O)NC(=O)[C@H](C)NC(=O)[C@H](CCCCNC(=O)COCCOCCNC(=O)COCCOCCNC(=O)CC[C@H](NC(=O)CCCCCCCCCCCCCCCCC(=O)O)C(=O)O)NC(=O)[C@H](CCCCN)NC(=O)[C@H](CC(=O)O)NC(=O)[C@H](CC(C)C)NC(=O)[C@H](CC(C)C)NC(=O)[C@@H](NC(=O)[C@H](CO)NC(=O)[C@H](Cc1ccc(O)cc1)NC(=O)[C@H](CC(=O)O)NC(=O)[C@H](CO)NC(=O)[C@@H](NC(=O)[C@H](Cc1ccccc1)NC(=O)[C@@H](NC(=O)CNC(=O)[C@H](CCC(=O)O)NC(=O)C(C)(C)NC(=O)[C@@H](N)Cc1ccc(O)cc1)[C@@H](C)O)[C@@H](C)O)[C@@H](C)CC)[C@@H](C)CC)C(=O)N[C@@H](CCC(=O)O)C(=O)NCC(=O)NCC(N)=O
B15: Example 315 (peptide)
peptide: B12 peptide with F1Y, X13L, A29G
modifications: Aib2; K17((2-[2-(2-Amino-ethoxy)-ethoxy]-acetyl)2-(γ-Glu)-CO-(CH2)16-CO2H); Aib20; C-terminal NH2

T3 sequence (P47871 26-477): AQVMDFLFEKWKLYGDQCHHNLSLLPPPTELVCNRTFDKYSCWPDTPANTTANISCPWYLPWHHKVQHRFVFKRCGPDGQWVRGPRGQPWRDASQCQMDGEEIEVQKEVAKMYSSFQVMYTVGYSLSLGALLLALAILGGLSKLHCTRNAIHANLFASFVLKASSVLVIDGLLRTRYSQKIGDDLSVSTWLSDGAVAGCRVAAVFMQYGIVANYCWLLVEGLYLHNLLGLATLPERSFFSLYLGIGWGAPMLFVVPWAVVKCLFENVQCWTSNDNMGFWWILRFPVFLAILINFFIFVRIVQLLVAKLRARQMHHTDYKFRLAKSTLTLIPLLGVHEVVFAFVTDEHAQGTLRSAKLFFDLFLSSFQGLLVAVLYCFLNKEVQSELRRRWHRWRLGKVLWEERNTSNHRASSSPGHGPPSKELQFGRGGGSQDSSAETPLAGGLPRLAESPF

For one experiment, the target named is T1, human GLP-1 receptor (human, UniProt P43220 24-463).
T1 construct: whole, on cells; also called hGLP-1R; hGLP1R
Kind of experiment: [125I]-GLP-1 competition SPA, hGLP-1R membranes. The method in brief:
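Kᵢ values are geometric means (SEM) over replicates run on separate days, derived from IC₅₀ of four-parameter curve fits. Buffer: HEPES 25 mM pH 7.4 with CaCl₂ 2.5 mM, MgCl₂ 1 mM, bacitracin 0.1%, TWEEN-20 0.003%, EDTA-free protease inhibitors.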
For orientation: Ki means the equilibrium dissociation constant of an inhibitor or competing ligand from its target. Read a low Ki as higher affinity. Molecule B1 yielded a Ki of 13.3 nM.

As for B2, the inhibition constant Ki came out at 2.34 nM.

Regarding B3, the affinity, expressed as Ki, was 6.85 nM. Compared with the last molecule, the Ki is about 2.9-fold higher.

In turn, B4 yielded a Ki of 1.99 nM.

In turn, B5 had a Ki of 2.63 nM.

B6: affinity was put at a Ki of 3.23 nM.

For B7, the affinity, expressed as Ki, was 2.76 nM. The Ki values of the last two molecules are within 1.5-fold of each other.

Consider B8, for which the inhibition constant (Ki) is 15.4 nM.

Turning to B9, the inhibitory constant (Ki) is 3.03 nM.

B10 returned a Ki of 11.4 nM.

In the case of B11, the affinity corresponds to a Ki of 4.68 nM.

Molecule B12 gave a Ki of 3.98 nM.

In turn, B13 had an inhibition constant (Ki) of 14.8 nM.

Molecule B14 came in with a Ki of 4.12 nM. This Ki lies about 3.6-fold lower than the previous one.

For the next experiment, the target named is T2, human GIP receptor (human, UniProt P48546 22-466).
T2 construct: whole, on cells; also called hGIPR; hGIP-R
T2 sequence (looked up): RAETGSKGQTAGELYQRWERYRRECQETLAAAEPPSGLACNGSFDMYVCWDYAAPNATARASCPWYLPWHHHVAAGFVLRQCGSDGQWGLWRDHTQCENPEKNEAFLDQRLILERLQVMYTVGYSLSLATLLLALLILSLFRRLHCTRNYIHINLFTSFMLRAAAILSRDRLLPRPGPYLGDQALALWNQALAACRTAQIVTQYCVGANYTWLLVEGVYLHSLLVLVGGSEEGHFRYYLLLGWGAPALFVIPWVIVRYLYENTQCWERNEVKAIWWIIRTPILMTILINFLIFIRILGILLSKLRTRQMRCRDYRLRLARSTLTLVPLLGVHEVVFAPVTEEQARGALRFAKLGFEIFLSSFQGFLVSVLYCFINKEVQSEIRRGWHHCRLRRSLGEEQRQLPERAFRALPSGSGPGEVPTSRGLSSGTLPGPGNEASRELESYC
Put plainly: [125I]-GIP competition SPA, hGIPR membranes.
Molecule B15 returned a Ki of 0.0677 nM.

B1 registered an inhibitory constant (Ki) of 0.0374 nM.

The molecule B2 came in with a Ki of 0.0559 nM. This Ki and that of the molecule before are within 1.5-fold of each other.

Molecule B3 showed an inhibition constant Ki of 0.0666 nM.

In the case of B4, the Ki turned out to be 0.0304 nM.

The molecule B5 showed a Ki of 0.0457 nM. Compared with the last molecule, the Ki is about 1.5-fold higher.

In the case of B6, affinity was put at a Ki of 0.0831 nM.

B7 showed a Ki of 0.0978 nM.

B8 had a Ki of 0.129 nM.

The molecule B9 registered a Ki of 0.0394 nM.

B10: the affinity, expressed as Ki, was 0.0851 nM.

In turn, B11 returned an inhibition constant Ki of 0.042 nM.

Consider B12, for which the Ki was found to be 0.136 nM.

B13 yielded a Ki of 0.0507 nM.

In the case of B14, the Ki was 0.181 nM.

Another experiment addresses T3, human glucagon receptor (human, UniProt P47871 26-477).
T3 construct: whole, on cells; also called hGcgR; GcgR
Put plainly: [125I]-Gcg competition SPA, hGcgR membranes.
B15 showed an inhibitory constant (Ki) of 539 nM.

With B2, the inhibition constant (Ki) was 45.2 nM.

For the molecule B3, the Ki was 75.2 nM. This Ki lies about 1.7-fold higher than the previous one.

Molecule B4 came in with an inhibition constant Ki of 126 nM.

In turn, B7 gave a Ki of 205 nM.

Take B9: the affinity, expressed as Ki, was 440 nM.

B11 registered a Ki of 494 nM.
